In PMC3840788, “The role of Cdc42 and Gic1 in the regulation of septin filament formation and dissociation” (eLife, 2013):

T1: septin-Cdc11Δ complex (Cdc3, Cdc10, Cdc12) (yeast (S. cerevisiae), UniProt P32457 1-520; P25342 1-322; P32468 1-407)
T1 construct: Cdc3, yeast septin; Cdc10, yeast septin; Cdc12, yeast septin; Septin complex devoid of the Cdc11 subunit; copies: + +
T1 sequence (looked up) 1: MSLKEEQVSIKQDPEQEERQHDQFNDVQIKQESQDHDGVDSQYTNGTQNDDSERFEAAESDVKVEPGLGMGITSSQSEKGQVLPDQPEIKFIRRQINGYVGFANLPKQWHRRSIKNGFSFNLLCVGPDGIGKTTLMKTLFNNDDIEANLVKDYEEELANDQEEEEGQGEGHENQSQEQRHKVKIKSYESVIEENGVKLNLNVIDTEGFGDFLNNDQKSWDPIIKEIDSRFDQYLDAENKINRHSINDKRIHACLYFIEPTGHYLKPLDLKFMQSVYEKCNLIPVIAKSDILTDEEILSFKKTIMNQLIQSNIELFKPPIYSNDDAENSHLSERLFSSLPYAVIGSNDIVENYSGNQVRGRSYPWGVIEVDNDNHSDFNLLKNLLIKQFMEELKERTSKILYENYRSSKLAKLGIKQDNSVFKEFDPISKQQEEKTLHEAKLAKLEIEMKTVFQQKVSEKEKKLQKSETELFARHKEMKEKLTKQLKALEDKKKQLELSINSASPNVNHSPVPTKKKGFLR
T1 sequence (looked up) 2: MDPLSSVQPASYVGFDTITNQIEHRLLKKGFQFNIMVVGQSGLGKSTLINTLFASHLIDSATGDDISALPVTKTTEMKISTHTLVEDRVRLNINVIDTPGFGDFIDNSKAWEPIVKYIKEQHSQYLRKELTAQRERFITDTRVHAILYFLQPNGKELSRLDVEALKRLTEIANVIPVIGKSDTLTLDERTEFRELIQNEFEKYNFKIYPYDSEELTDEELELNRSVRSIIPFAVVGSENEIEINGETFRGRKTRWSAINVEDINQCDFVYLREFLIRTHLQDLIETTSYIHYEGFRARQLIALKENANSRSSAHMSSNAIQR
T1 sequence (looked up) 3: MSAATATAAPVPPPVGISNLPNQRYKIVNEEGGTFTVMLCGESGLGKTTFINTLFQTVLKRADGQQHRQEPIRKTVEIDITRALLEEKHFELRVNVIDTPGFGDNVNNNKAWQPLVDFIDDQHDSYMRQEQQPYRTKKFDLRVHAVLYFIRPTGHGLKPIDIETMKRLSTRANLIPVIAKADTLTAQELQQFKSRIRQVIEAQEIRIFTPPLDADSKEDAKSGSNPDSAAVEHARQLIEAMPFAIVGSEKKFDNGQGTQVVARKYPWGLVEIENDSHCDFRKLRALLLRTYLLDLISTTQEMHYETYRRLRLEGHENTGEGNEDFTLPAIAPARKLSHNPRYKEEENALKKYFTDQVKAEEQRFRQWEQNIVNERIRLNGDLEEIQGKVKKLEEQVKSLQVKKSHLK

T2: Cdc10(30-322) (subunit of the septin-Cdc10(30-322) complex) (yeast (S. cerevisiae), UniProt P25342 30-322)
T2 construct: Never tested alone: it stood inside the complex m5
T2 sequence (looked up): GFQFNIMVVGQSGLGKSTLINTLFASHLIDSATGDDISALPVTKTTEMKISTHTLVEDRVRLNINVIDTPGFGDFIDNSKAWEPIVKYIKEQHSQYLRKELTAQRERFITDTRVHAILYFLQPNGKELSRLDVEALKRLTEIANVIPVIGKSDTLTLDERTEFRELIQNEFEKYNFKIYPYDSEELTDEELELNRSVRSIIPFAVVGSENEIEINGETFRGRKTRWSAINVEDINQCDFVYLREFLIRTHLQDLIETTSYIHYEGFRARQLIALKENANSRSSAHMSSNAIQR

T3: Cdc10 (subunit of the purified yeast septin complex) (yeast (S. cerevisiae), UniProt P25342 1-322)
T3 construct: Cdc10, yeast septin; Never tested alone: it stood inside the complex m2; the subunit that is touched was assigned from antibody labelling, complexes lacking subunits and the known order of the subunits; source: subunit of the septin complex expressed and purified as described earlier (Farkasovsky et al., 2005)
T3 sequence (looked up): T1 sequence (looked up) 2

B1: yeast septin complex (Cdc3, Cdc10, Cdc11, Cdc12) (complex, yeast (S. cerevisiae))
chain 1: T1 sequence (looked up) 1
chain 2: T1 sequence (looked up) 2
chain 3: MSGIIDASSALRKRKHLKRGITFTVMIVGQSGSGRSTFINTLCGQQVVDTSTTILLPTDTSTEIDLQLREETVELEDDEGVKIQLNIIDTPGFGDSLDNSPSFEIISDYIRHQYDEILLEESRVRRNPRFKDGRVHCCLYLINPTGHGLKEIDVEFIRQLGSLVNIIPVISKSDSLTRDELKLNKKLIMEDIDRWNLPIYNFPFDEDEISDEDYETNMYLRTLLPFAIIGSNEVYEMGGDVGTIRGRKYPWGILDVEDSSISDFVILRNALLISHLHDLKNYTHEILYERYRTEALSGESVAAESIRPNLTKLNGSSSSSTTTRRNTNPFKQSNNINNDVLNPASDMHGQSTGENNETYMTREEQIRLEEERLKAFEERVQQELLLKRQELLQREKELREIEARLEKEAKIKQEE
chain 4: T1 sequence (looked up) 3
notes: Cdc3, yeast septin; Cdc10, yeast septin; Cdc11, yeast septin; Cdc12, yeast septin; Octamer at high salt (500 mM NaCl), filaments at low salt (100 mM NaCl); also called septin octamers; septin filaments; source: expressed and purified as described earlier (Farkasovsky et al., 2005); copies: 2 + 2 + 2 + 2
B2: Gic1(104-314) (domain or fragment, yeast (S. cerevisiae), UniProt P38785 104-314, looked up)
chain: MFKKKDLLSRRHGSAKTAKQSSISTPFDFHHISHANGKREDNPLESHEEKHDVESLVKFTSLAPQPRPDSNVSSKYSNVVMNDSSRIVSSSTIATTMDSHHDGNETNNTPNGNKQLDSPTDLEMTLEDLRNYTFPSVLGDSVSEKTNPSSPSVSSFSGKFKPRELSALHTPELGNCFNVDQSLNSPGNRISVDDVLKFYYQCSETSTPRNT
notes: Gic1, yeast, residues 104-314 (N-terminal 103 amino acids deleted); gic1(310-942) in nucleotides; contains the CRIB domain and the C-terminus; Called simply Gic1 throughout the text; The methods say GST was cleaved with thrombin; Dimer by gel filtration; source: E. coli BL21 (DE3) Rosetta, purified (Ni-NTA, glutathione sepharose, Superdex S200)

Legend:
[1] = biological target: the molecule itself; test: negative-stain electron microscopy with single particle analysis; 0.1 µM septin octamers, with or without 0.5 µM Gic1; Cdc42-GppNHp or Cdc42-GDP at the concentration of Gic1 or 10 times higher (0.25, 1.5, 5 µM), 2 to 60 min; antibody labelling against Cdc3
[2] = biological target: the molecule itself; test: SEC; gel filtration of purified Gic1(104-314) alone against protein standards; calculated 23.38 kDa, elutes at 49 kDa; monomer to dimer
[3] = biological target: B1; test: negative-stain electron microscopy with single particle analysis; 0.3 µM septin hetero-oligomers, alone or with 1.5 µM Gic1, dialysed overnight at 4°C from high-salt buffer against low-salt buffer (100 mM NaCl, 20 mM Tris-HCl pH 7.5, 1 mM DTT); antibody labelling against Cdc11; adsorbed to a lipid monolayer; conditions: both partners purified
[4] = biological target: T4, septin-Cdc10(30-322) complex (Cdc3, Cdc10(30-322), Cdc11, Cdc12) (yeast (S. cerevisiae), UniProt P32457 1-520; P25342 30-322; P32458 1-415; P32468 1-407); test: as above; conditions: both partners purified
T4 construct: Cdc3, yeast septin; Cdc11, yeast septin; Cdc12, yeast septin; Seen by EM as tetramers or inside-out octamers; no filaments at low salt; also called polymerization-impaired septin complexes; non-polymerizing septin; copies: + + +

[5] = biological target: T1, septin-Cdc11Δ complex (Cdc3, Cdc10, …); test: as above; conditions: both partners purified
[6] = biological target: T2, Cdc10(30-322) (subunit of the …); test: as above; conditions: both partners purified
[7] = biological target: T3, Cdc10 (subunit of the purified yeast …); test: as above; conditions: both partners purified

Row | binding result [3] | binding result [4] | binding result [5] | binding result [6] | binding result [7] | Binder | binding result [1] | stoichiometry N [2]
1 |  |  |  |  |  | B1 | binds | 
2 | binds | binds | binds | binds | binds | B2 |  | ~2
